Reference: article PMC8655068, “Quantitative proteomic screen identifies annexin A2 as a host target for Salmonella pathogenicity island-2 effectors SopD2 and PipB2” (Scientific Reports, 2021)

Molecular target: T1, recombinant human His6-tagged annexin A2 (human, UniProt P07355 1-339)
T1 construct: annexin A2, human, recombinant; No catalogue number is printed; also called His6-AnxA2; His6-tagged AnxA2; source: bought: Novus Biologicals
Test: pull-down; about 20 µg concentrated culture supernatant (SPI-2 inducing conditions) mixed with 5 µg His6-annexin A2 overnight at 4 °C; Ni-Sepharose beads 2 h at room temperature; four washes in TBS-T (20 mM Tris-HCl, 150 mM NaCl, 0.75% Triton X-100); Western blot with anti-HA and anti-AnxA2; densitometry of 3 blots, with AnxA2 over without AnxA2
Conditions: one partner purified

T1 sequence (P07355 whole entry): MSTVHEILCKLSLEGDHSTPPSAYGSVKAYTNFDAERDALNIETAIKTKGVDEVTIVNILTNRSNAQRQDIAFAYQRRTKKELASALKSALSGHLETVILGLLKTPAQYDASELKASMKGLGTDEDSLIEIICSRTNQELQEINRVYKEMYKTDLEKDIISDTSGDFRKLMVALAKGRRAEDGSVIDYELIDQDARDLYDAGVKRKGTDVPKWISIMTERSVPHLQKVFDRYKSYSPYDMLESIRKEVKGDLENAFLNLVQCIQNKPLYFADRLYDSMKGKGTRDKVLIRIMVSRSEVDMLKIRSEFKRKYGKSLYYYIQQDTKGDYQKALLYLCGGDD

B1: SopD2-2HA (natural protein)
chain: MPVTLSFGNRHNYEINHSRLARLMSPDKEEALYMGVWDRFKDCFRTHKKQEVLEVLYTLIHGCERENQAELNVDITGMEKIHAFTQLKEYANPSQQDRFVMRFDMNQTQVLFEIDGKVIDKCNLHRLLNVSENCIFKVMEEDEEELFLKICIKYGEKISRYPELLEGFANKLKDAVNEDDDVKDEVYKLMRSGEDRKMECVEWNGTLTEEEKNKLRCLQMGSFNITTQFFKIGYWELEGEVLFDMVHPTLSYLLQAYKPSLSSDLIETNTMLFSDVLNKDYDDYQNNKREIDAILRRIYRSHNNTLFISEKSSCRNMLI
notes: SopD2, T3SS2-secreted effector of Salmonella enterica serovar Typhimurium SL1344, under its native promoter in pACYC184; also called pSopD2-2HA; source: S. Typhimurium SL1344 T3SS2+ ΔsopD2 carrying pSopD2-2HA: translocated into infected HeLa cells, in lysate; secreted under SPI-2 inducing conditions (LPM pH 5.8), concentrated culture supernatant; not shown: 2xHA (tandem HA), C-terminal, kept
fold change of effector pulled down with AnxA2 over without AnxA2: 12.3 fold
